Measurements from paper PMC10134273 (Cancer Medicine, 2023).
Values joined by “and” are separate entries in the source; they are usually repeats but may differ in a detail not shown here. Equal values may be shown once. Read-outs that look alike come from different tables or passages of the source.

Method: Secondary endpoints included PK parameters (e.g., maximum observed concentration [C max] and area under the concentration‐time curve [AUC]). Secondary endpoints included objective response rate (ORR), disease control rate (DCR), and duration of response (DOR) as assessed by investigator per RECIST v1.1. Tumor responses were assessed according to RECIST v1.1; computerized tomography scanning or magnetic resonance imaging was performed every 6 weeks in the first 48 weeks, and every 12 weeks thereafter. Secondary endpoints also included safety and tolerability (adverse events [AEs] as defined by the National Cancer Institute‐Common Terminology Criteria for Adverse Events CTCAE v5.0) and exploratory biomarkers (total bile acids, 7‐α‐hydroxy‐4‐cholesten‐3‐one [C4] and circulating FGF19). Safety follow‐up visit was performed within 30 days (±5 days) and 90 days (±7 days) after the last dose of the study treatment.
All patients who received at least one dose of the study treatment in the Phase 1 part of the study were included in the safety and efficacy analyses. Dose escalation and MTD assessment were primarily based on DLTs which occurred within the 28‐day observation period. Descriptive statistics were used for demographics, safety, and efficacy data. The number of patients who experienced DLTs (within and outside of the 28‐day DLT assessment period) was tabulated for each dose level. The sample size of patients required for dose escalation were determined based on the ‘3+3’ design and DLTs observed as the trial progressed.

[1] = EVER4010001 40 mg BID group (N=3)
[2] = EVER4010001 60 mg BID group (N=3)
[3] = EVER4010001 80 mg BID group (N=6)
[4] = EVER4010001 100 mg BID group (N=7)

Substance: pembrolizumab: humanized monoclonal immunoglobulin G4 kappa anti-PD-1 antibody [reference compound]
- SAEs related to EVER4010001 or pembrolizumab (2 patients with SAEs (40 and 60 mg)): none
- Any pembrolizumab related TEAEs (Any Grade, N=19): 18 (94.7%) n (%) and 18 (94.7) n (%)
- pembrolizumab related TEAEs: Abdominal pain (Any Grade, N=19): 2 (10.5) n (%)
- pembrolizumab related TEAEs: Anemia (Any Grade, N=19): 4 (21.1) n (%)
- pembrolizumab related TEAEs: Aspartate aminotransferase increase (Any Grade, N=19): 10 [52.6%] n (%) and 10 (52.6) n (%)
- pembrolizumab related TEAEs: Blood alkaline phosphatase increased (Any Grade, N=19): 4 (21.1) n (%)
- pembrolizumab related TEAEs: Blood and lymphatic system disorders (Any Grade, N=19): 4 (21.1) n (%)
- pembrolizumab related TEAEs: Blood bilirubin increased (Any Grade, N=19): 4 (21.1) n (%)
- pembrolizumab related TEAEs: Diarrhea (Any Grade, N=19): 11 [57.9%] n (%) and 11 (57.9) n (%)
- pembrolizumab related TEAEs: Endocrine disorders (Any Grade, N=19): 3 (15.8) n (%)
- pembrolizumab related TEAEs: Gamma-glutamyl transferase increased (Any Grade, N=19): 2 (10.5) n (%)
- pembrolizumab related TEAEs: Gastrointestinal disorders (Any Grade, N=19): 11 (57.9) n (%)
- pembrolizumab related TEAEs: Hyperphosphatemia (Any Grade, N=19): 3 (15.8) n (%)
- pembrolizumab related TEAEs: Hypoalbuminemia (Any Grade, N=19): 3 (15.8) n (%)
- pembrolizumab related TEAEs: Hypothyroidism (Any Grade, N=19): 3 (15.8) n (%)
- pembrolizumab related TEAEs: Investigations (Any Grade, N=19): 14 (73.7) n (%)
- pembrolizumab related TEAEs: Metabolism and nutrition disorders (Any Grade, N=19): 6 (31.6) n (%)
- pembrolizumab related TEAEs: Proteinuria (Any Grade, N=19): 4 (21.1) n (%)
- pembrolizumab related TEAEs: Renal and urinary disorder (Any Grade, N=19): 4 (21.1) n (%)
- pembrolizumab related TEAEs: Thyroiditis (Any Grade, N=19): 2 (10.5) n (%)
- TEAEs resulting in temporary interruption of pembrolizumab [1]: 1 (33.3) n (%)
- Temporary interruption of pembrolizumab: Blood bilirubin increased [1]: 0 n (%)
- Temporary interruption of pembrolizumab: Endocrine disorders [1]: 1 (33.3) n (%)
- Temporary interruption of pembrolizumab: Investigations [1]: 0 n (%)
- Temporary interruption of pembrolizumab: Thyroiditis [1]: 1 (33.3) n (%)
- TEAEs resulting in temporary interruption of pembrolizumab [2]: 0 n (%)
- Temporary interruption of pembrolizumab: Blood bilirubin increased [2]: 0 n (%)
- Temporary interruption of pembrolizumab: Endocrine disorders [2]: 0 n (%)
- Temporary interruption of pembrolizumab: Investigations [2]: 0 n (%)
- Temporary interruption of pembrolizumab: Thyroiditis [2]: 0 n (%)
- TEAEs resulting in temporary interruption of pembrolizumab [3]: 1 (16.7) n (%)
- Temporary interruption of pembrolizumab: Blood bilirubin increased [3]: 1 (16.7) n (%)
- Temporary interruption of pembrolizumab: Endocrine disorders [3]: 0 n (%)
- Temporary interruption of pembrolizumab: Investigations [3]: 1 (16.7) n (%)
- Temporary interruption of pembrolizumab: Thyroiditis [3]: 0 n (%)
- TEAEs resulting in temporary interruption of pembrolizumab [4]: 1 (14.3) n (%)
- Temporary interruption of pembrolizumab: Blood bilirubin increased [4]: 0 n (%)
- Temporary interruption of pembrolizumab: Endocrine disorders [4]: 0 n (%)
- Temporary interruption of pembrolizumab: Investigations [4]: 1 (14.3) n (%)
- Temporary interruption of pembrolizumab: Thyroiditis [4]: 0 n (%)
- pembrolizumab related TEAEs: Abdominal pain (Grade ≥3, N=19): 0 n (%)
- pembrolizumab related TEAEs: Anemia (Grade ≥3, N=19): 0 n (%)
- pembrolizumab related TEAEs: Aspartate aminotransferase increase (Grade ≥3, N=19): 2 (10.5) n (%)
- pembrolizumab related TEAEs: Blood alkaline phosphatase increased (Grade ≥3, N=19): 0 n (%)
- pembrolizumab related TEAEs: Blood and lymphatic system disorders (Grade ≥3, N=19): 0 n (%)
- pembrolizumab related TEAEs: Blood bilirubin increased (Grade ≥3, N=19): 0 n (%)
- pembrolizumab related TEAEs: Diarrhea (Grade ≥3, N=19): 1 (5.3) n (%)
- pembrolizumab related TEAEs: Endocrine disorders (Grade ≥3, N=19): 0 n (%)
- pembrolizumab related TEAEs: Gamma-glutamyl transferase increased (Grade ≥3, N=19): 0 n (%)
- pembrolizumab related TEAEs: Gastrointestinal disorders (Grade ≥3, N=19): 1 (5.3) n (%)
- pembrolizumab related TEAEs: Hyperphosphatemia (Grade ≥3, N=19): 0 n (%)
- pembrolizumab related TEAEs: Hypoalbuminemia (Grade ≥3, N=19): 0 n (%)
- pembrolizumab related TEAEs: Hypothyroidism (Grade ≥3, N=19): 0 n (%)
- pembrolizumab related TEAEs: Investigations (Grade ≥3, N=19): 2 (10.5) n (%)
- pembrolizumab related TEAEs: Metabolism and nutrition disorders (Grade ≥3, N=19): 0 n (%)
- pembrolizumab related TEAEs: Proteinuria (Grade ≥3, N=19): 0 n (%)
- pembrolizumab related TEAEs: Renal and urinary disorder (Grade ≥3, N=19): 0 n (%)
- pembrolizumab related TEAEs: Thyroiditis (Grade ≥3, N=19): 0 n (%)
- TEAEs resulting in temporary interruption of pembrolizumab (Total (N=19)): 3 [15.8%] n (%) and 3 (15.8) n (%)
- Temporary interruption of pembrolizumab: Blood bilirubin increased (Total (N=19)): 1 (5.3%) n (%) and 1 (5.3) n (%)
- Temporary interruption of pembrolizumab: Endocrine disorders (Total (N=19)): 1 (5.3) n (%)
- Temporary interruption of pembrolizumab: Investigations (Total (N=19)): 2 (10.5) n (%)
- Temporary interruption of pembrolizumab: Thyroiditis (Total (N=19)): 1 (5.3%) n (%) and 1 (5.3) n (%)
